Source: patent US20200270352A1 (PIERRE FABRE MEDICAMENT, published 2020)
Residue numbers refer to the chain shown, from its start.

B1: humanized antibody hz208F2 VH3/VL3 (hz208F2 H026/L024) (antibody, human IgG1, kappa, V domains shown)
VH: QVQLVQSGAEVKKPGASVKMSCKASGYTFTSYYIYWVKQAPGQGLEWLGWIWPGDGSTKYNEKFQGRVTLTADKSSNTAYMFLSSLRSEDTAVYFCASPMITPNYAMDYWGQGTLVTVSS
VL: DIQMTQSPSSLSASVGDRVTISCRASQDISKYLNWYQQKPGKAPKLLIYYTSRLHSGVPSRFSGRGSGTDYSLTISNLQPEDFATYFCQQGSTLPYTFGGGTKVEIKR
notes: also called H26/L024; first humanized form of 208F2
B2: chimeric antibody c208F2 (antibody, human IgG1, kappa, V domains shown)
VH: QVQLQQSGPELVKPGASVKMSCKASGYTFTSYYIYWVKQRPGQGLEWLGWIWPGDGSTKYNEKFKDKTTLTADKSSNTAYMFLSSLTSEDSAVYFCASPMITPNYAMDYWGQGASVTVSS
VL: DIQMTQTTSSLSASLGDRVTISCRASQDISKYLNWYQQQPDGTIKLLIYYTSRLHSGVPSRFSGRGSGTDYSLTISNVEQEDIATYFCQQGSTLPYTFGGGTKLEIKR
B3: murine antibody 208F2 (hybridoma CNCM I-4757) (antibody, V domains shown)
VH: B2 VH
VL: DIQMTQTTSSLSASLGDRVTISCRASQDISKYLNWYQQQPDGTIKLLIYYTSRLHSGVPSRFSGRGSGTDYSLTISNVEQEDIATYFCQQGSTLPYTFGGGTKLEIK
notes: also called m208F2
B4: murine antibody 212A11 (hybridoma CNCM I-4773) (antibody, V domains shown)
VH: B2 VH with Y35H, L48I, D66G, N77S
VL: B3 VL with S30N, I44V, V78L
notes: also called m212A11
B5: murine antibody 219D6 (hybridoma CNCM I-4736) (antibody, V domains shown)
VH: B2 VH with A16D, T28S, Y33F, Y35H, L48I, D66G, A72T, N77S, S84N
VL: B3 VL with I44V, V78L
notes: also called m219D6
B6: murine antibody 213B10 (hybridoma CNCM I-4774) (antibody, V domains shown)
VH: B2 VH with P9S, Y35H, L48I, K63R, D66G, N77S
VL: B3 VL with S76T, V78L, T93A
notes: also called m213B10
B7: murine antibody 214F8 (hybridoma CNCM I-4775) (antibody, V domains shown)
VH: B2 VH with P9S, M20L, Y35H, L48I, K63R, D66G, N77S
VL: B3 VL with I21F, S76T, V78L, T93A
notes: also called m214F8
B8: chimeric antibody c212A11 (antibody, human IgG1, kappa, V domains shown)
VH: B2 VH with Y35H, L48I, D66G, N77S
VL: B2 VL with S30N, I44V, V78L
B9: chimeric antibody c219D6 (antibody, human IgG1, kappa, V domains shown)
VH: B2 VH with A16D, T28S, Y33F, Y35H, L48I, D66G, A72T, N77S, S84N
VL: B2 VL with I44V, V78L
B10: chimeric antibody c213B10 (antibody, human IgG1, kappa)
heavy: not shown
light: DIQMTQTTSSLSASLGDRVTISCRASQDISKYLNWYQQQPDGTIKLLIYYTSRLHSGVPSRFSGRGSGTDYSLTITNLEQEDIATYFCQQGSALPYTFGGGTKLEIKRTVAAPSVFIFPPSDEQLKSGTASVVCLLNNFYPREAKVQWKVDNALQSGNSQESVTEQDSKDSTYSLSSTLTLSKADYEKHKVYACEVTHQGLSSPVTKSFNRGEC
B11: chimeric antibody c214F8 (antibody, human IgG1, kappa)
heavy: not shown
light: B10 light with I21F

Target: T1, human insulin receptor on cells (IM9 cells; hIR+ transfected cell line, NIH 3T3 IR+) (human, UniProt P06213 28-1382)
T1 construct: whole, on cells; also called human IR
Assay: FACS titration on NIH 3T3 IR+ cells

B1: no binding (tested: log[M] about -7.2 (about 6e-8 M)).

Target: T2, human IGF-1R, native, on cells (MCF-7, hIGF-1R transfected cells, primary normal human cells) (human, UniProt P08069 31-1367)
Assay: cell-based or functional assay

Point of comparison: B3, “% internalization (MCF-7)” value 88%. Against it:
- B1 — lower, 87%
- B2 — lower, 82%

Point of comparison: B3, “ΔMFI (MFI 4°C - MFI 37°C, MCF-7, 10 µg/ml, 4 h)” value 294 MFI. Against it:
- B1 — higher, 344 MFI
- B2 — lower, 278 MFI

Target: T3, monkey IGF-1R on COS-7 cells (African green monkey kidney) (monkey (African green monkey))
T3 construct: whole, on cells; also called monkey native IGF-1R
Assay: FACS on Cos-7 cells (monkey IGF1R+), SNT at 5 µg/ml

B4 was tested, and the MFI was 126 MFI.

Target: T2, human IGF-1R, native, on cells (MCF-7, …)
Assay: cell-based or functional assay
Remark: another data set of the same source

Point of comparison: B3, “MCF7 internalisation assay: % remaining rh IGF1R” value 27%. Against it:
- B5 — higher, 30%
- B6 — higher, 30%
- B7 — higher, 29%

Point of comparison: B6, “MCF7 internalisation assay: Δ (MFI 4°C - MFI 37°C)” value 271 MFI. Against it:
- B5 — lower, 243 MFI
- B3 — lower, 261 MFI
- B7 — higher, 275 MFI

Point of comparison: B7, “MCF7 internalisation assay: MFI 37°C” value 111 MFI. Against it:
- B3 — lower, 94 MFI

Target: T4, rmIGF-1R protein (murine IGF-1R extracellular domain, R&D Systems cat 6630-GR/Fc) (murine, UniProt Q60751 31-936)
T4 construct: extracellular domain; Bought reagent; not shown: Fc part implied by the catalogue number /Fc; not described
Assay: ELISA on coated rmIGF-1R, SNT at 5 µg/ml
Procedure: In addition three ELISAs were performed (either before or after cloning) to study the binding of antibodies on the recombinant human (hIGF-1R) and murine (mIGF-1R) proteins, and on the recombinant human Insulin Receptor (hIR) protein. […] The plates were then blocked with PBS containing 0.5% gelatin (#22151, Serva Electrophoresis GmbH, Heidelberg, Germany) for 2 h at 37° C. Once the saturation buffer discarded by flicking plates, 100 μl of each supernatant dilution were added to each well (either undiluted hybridoma supernatant either supernatant serial dilutions) and incubated for 1 h at 37° C. […] Then, ELISA plates were washed 3-times and the TMB (#UP664782, Uptima, Interchim, France) substrate is added. After a 10 min incubation time at room temperature, the reaction was stopped using 1 M sulfuric acid and the optical density at 450 nm is measured.

T4 sequence (Q60751 31-936): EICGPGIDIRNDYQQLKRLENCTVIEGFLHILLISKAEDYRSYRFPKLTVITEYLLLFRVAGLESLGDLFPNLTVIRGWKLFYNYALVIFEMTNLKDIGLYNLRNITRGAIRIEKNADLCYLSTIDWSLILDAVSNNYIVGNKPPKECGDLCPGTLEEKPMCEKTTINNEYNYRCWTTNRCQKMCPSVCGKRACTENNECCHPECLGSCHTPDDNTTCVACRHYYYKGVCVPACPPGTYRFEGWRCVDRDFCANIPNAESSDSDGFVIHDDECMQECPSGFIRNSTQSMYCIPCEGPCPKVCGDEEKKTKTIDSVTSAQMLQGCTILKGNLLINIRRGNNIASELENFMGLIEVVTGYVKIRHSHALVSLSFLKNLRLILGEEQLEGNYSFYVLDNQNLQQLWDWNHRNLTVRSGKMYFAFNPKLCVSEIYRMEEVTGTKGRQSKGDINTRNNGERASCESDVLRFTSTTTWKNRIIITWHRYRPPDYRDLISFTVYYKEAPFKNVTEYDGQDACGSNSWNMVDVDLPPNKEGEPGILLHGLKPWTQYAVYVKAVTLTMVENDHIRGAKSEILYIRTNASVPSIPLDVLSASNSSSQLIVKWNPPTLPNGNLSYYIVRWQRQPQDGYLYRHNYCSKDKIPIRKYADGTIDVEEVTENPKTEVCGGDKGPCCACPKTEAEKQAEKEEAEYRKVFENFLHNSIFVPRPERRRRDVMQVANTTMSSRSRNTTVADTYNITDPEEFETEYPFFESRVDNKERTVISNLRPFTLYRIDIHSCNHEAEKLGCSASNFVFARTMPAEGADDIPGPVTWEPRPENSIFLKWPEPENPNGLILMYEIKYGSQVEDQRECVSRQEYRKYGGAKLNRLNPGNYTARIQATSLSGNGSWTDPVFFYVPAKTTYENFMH

Point of comparison: B7, “D.O 450 nm” value 0.102 OD 450 nm. Against it:
- B4 — the same, 0.102 OD 450 nm
- B5 — higher, 0.112 OD 450 nm
- B6 — higher, 0.127 OD 450 nm
- B3 — lower, 0.099 OD 450 nm

Target: T2, human IGF-1R, native, on cells (MCF-7, …)
Assay: cell-based or functional assay
Remark: another data set of the same source

B4 and B5 cannot be ordered by “inhibition of hIGF-1R phosphorylation in response to IGF-1 (MCF-7 cells)” value (shortened to “inhibition of hIGF-1R phosphorylation”): > 80% for the first, > 80% for the second.

B6 and B3 cannot be ordered by “inhibition of hIGF-1R phosphorylation” value: > 80% for the first, > 80% for the second.

B7 was tested, and the “inhibition of hIGF-1R phosphorylation” value was > 80%.

B8 and B2 cannot be ordered by “% of pIGF-1R compared to IGF-1 (MCF-7 cells, 10 µg/ml Ab)” value (“% of pIGF-1R” for short): < 10% for the first, < 10% for the second.

B9 and B10 cannot be ordered by “% of pIGF-1R” value: < 10% for the first, < 10% for the second.

B11 was tested, and the “% of pIGF-1R” value was < 10%.

Target: T2, human IGF-1R, native, on cells (MCF-7, …)
Assay: cell-based or functional assay
Remark: another data set of the same source

Point of comparison: B11, “ΔMFI (MFI 4°C - MFI 37°C, MCF-7)” value 403 MFI. Against it:
- B8 — lower, 322 MFI
- B2 — lower, 288 MFI
- B9 — lower, 353 MFI
- B10 — lower, 369 MFI

Point of comparison: B10, “ΔMFI_EC50 (MCF-7)” value 2.3e-10. Against it:
- B8 — higher, 2.7e-10
- B2 — lower, 1.8e-10
- B9 — higher, 4.4e-10
- B11 — lower, 2.2e-10
